The data set has as its system Escherichia coli TOP10. As to the kind of experiment: shrunken log2 fold change of peptide-encoding DNA abundance (4.5 h post-induction vs induction); higher = less antimicrobial activity (less host growth inhibition). As to conditions: time post-induction: 4.5 h; library: site-saturation at positions 5, 18, 19, 20.
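Further: peptides expressed intracellularly from a pBAD plasmid library in pooled LB shake-flask culture, induced with 0.3% L-arabinose, DNA abundance read by NGS, three biological replicates, DESeq2 with apeglm shrinkage.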

Regarding RRIRERPPRLPRPRPRPEKQPRP, the “shrunken log2 fold change” value is -0.00177. Regarding RRIRTRPPRLPRPRPRPKHLPRP, the “shrunken log2 fold change” value is -0.233. In the case of RRIRLRPPRLPRPRPRPHYQPRP, the “shrunken log2 fold change” value was -0.361. The result for RRIRFRPPRLPRPRPRPFCPPRP reads -0.386; that for RRIRGRPPRLPRPRPRPKGCPRP, 2.83; that for RRIRTRPPRLPRPRPRPGCDPRP, 0.256. Turning to RRIRQRPPRLPRPRPRPAGHPRP, the “shrunken log2 fold change” value stood at 0.000618. The result for RRIRHRPPRLPRPRPRPWIVPRP reads -0.404; that for RRIRNRPPRLPRPRPRPWSEPRP, 0.0632; that for RRIRRRPPRLPRPRPRPGVYPRP, -0.0241. The result for RRIRCRPPRLPRPRPRPKKMPRP reads 0.169. The value for RRIRARPPRLPRPRPRPLSVPRP was -0.0782; that for RRIRKRPPRLPRPRPRPLILPRP was -0.265; that for RRIRHRPPRLPRPRPRPRHGPRP was -0.0477. As to RRIRIRPPRLPRPRPRPVYTPRP, the “shrunken log2 fold change” value is -0.346. The result for RRIRLRPPRLPRPRPRPCGFPRP reads -0.0181; that for RRIRDRPPRLPRPRPRPREWPRP, -0.00146. The result for RRIRMRPPRLPRPRPRPVSAPRP reads 0.617. The result for RRIRSRPPRLPRPRPRPCFCPRP reads -0.489. In the case of RRIRFRPPRLPRPRPRPKNSPRP, the “shrunken log2 fold change” value was -0.533. On to RRIRERPPRLPRPRPRPDNGPRP, for which the “shrunken log2 fold change” value was -0.0776. Turning to RRIRFRPPRLPRPRPRPFRFPRP, the “shrunken log2 fold change” value was -0.129.

In the case of RRIRVRPPRLPRPRPRPEKAPRP, the “shrunken log2 fold change” value was -0.114.

Take RRIRLRPPRLPRPRPRPTTYPRP: the “shrunken log2 fold change” value is -0.182. Turning to RRIRRRPPRLPRPRPRPRHWPRP, the “shrunken log2 fold change” value was 0.551. The result for RRIRYRPPRLPRPRPRPEMDPRP reads -0.338; that for RRIRMRPPRLPRPRPRPNSYPRP, -0.0962; that for RRIRLRPPRLPRPRPRPARSPRP, 0.343. Consider RRIRSRPPRLPRPRPRPGDRPRP, for which the “shrunken log2 fold change” value was -0.267. For the sequence RRIRQRPPRLPRPRPRPKCQPRP, the “shrunken log2 fold change” value worked out at 0.0473.

RRIRERPPRLPRPRPRPYDHPRP: the “shrunken log2 fold change” value was -0.397. The value for RRIRERPPRLPRPRPRPVIAPRP was -0.205; that for RRIRNRPPRLPRPRPRPCVTPRP was -0.0849. The result for RRIRFRPPRLPRPRPRPPDFPRP reads -0.195; that for RRIRNRPPRLPRPRPRPYWAPRP, -0.0304; that for RRIRKRPPRLPRPRPRPVMQPRP, 0.041. The value for RRIRRRPPRLPRPRPRPWNWPRP was 2.98; that for RRIRHRPPRLPRPRPRPNDGPRP was -0.134. For the sequence RRIRMRPPRLPRPRPRPAWVPRP, the “shrunken log2 fold change” value is 0.375. The result for RRIRKRPPRLPRPRPRPDTIPRP reads 0.163; that for RRIRLRPPRLPRPRPRPHNGPRP, -0.00962; that for RRIRWRPPRLPRPRPRPRKIPRP, 0.491. Consider RRIRKRPPRLPRPRPRPCVTPRP, for which the “shrunken log2 fold change” value is 0.0632. The result for RRIRMRPPRLPRPRPRPWTNPRP reads -0.01; that for RRIRFRPPRLPRPRPRPLANPRP, 0.0332; that for RRIRNRPPRLPRPRPRPHLLPRP, -1.08.

In the case of RRIRYRPPRLPRPRPRPRLNPRP, the “shrunken log2 fold change” value is -0.313. The result for RRIRIRPPRLPRPRPRPAFGPRP reads 0.209; that for RRIRNRPPRLPRPRPRPNWFPRP, -0.145; that for RRIRKRPPRLPRPRPRPFMIPRP, -0.326. The result for RRIRLRPPRLPRPRPRPLANPRP reads -0.00613; that for RRIRWRPPRLPRPRPRPLVQPRP, 0.23; that for RRIRFRPPRLPRPRPRPFQCPRP, -0.0784.

RRIRFRPPRLPRPRPRPHSDPRP: the “shrunken log2 fold change” value was -0.129. The result for RRIRLRPPRLPRPRPRPQHPPRP reads -0.132; that for RRIRSRPPRLPRPRPRPEYEPRP, -0.0387.

Turning to RRIRCRPPRLPRPRPRPSNPPRP, the “shrunken log2 fold change” value came to 0.442.

Turning to RRIRLRPPRLPRPRPRPKFNPRP, the “shrunken log2 fold change” value is -0.437. Regarding RRIRFRPPRLPRPRPRPEQQPRP, the “shrunken log2 fold change” value came out at 0.171.

Regarding RRIRTRPPRLPRPRPRPNDQPRP, the “shrunken log2 fold change” value was -0.212. The value for RRIRCRPPRLPRPRPRPIFAPRP was 0.373; that for RRIRMRPPRLPRPRPRPSTHPRP was 0.021. The value for RRIRTRPPRLPRPRPRPDWVPRP was 0.0189; that for RRIRKRPPRLPRPRPRPSGFPRP was 0.161.

Take RRIRVRPPRLPRPRPRPIIQPRP: the “shrunken log2 fold change” value was -0.28. As for RRIRWRPPRLPRPRPRPFGAPRP, the “shrunken log2 fold change” value came out at 0.197. The value for RRIRVRPPRLPRPRPRPMNIPRP was -0.604. Regarding RRIRYRPPRLPRPRPRPEFNPRP, the “shrunken log2 fold change” value is -0.221.

In the case of RRIRWRPPRLPRPRPRPVFFPRP, the “shrunken log2 fold change” value came out at 0.238. Turning to RRIRYRPPRLPRPRPRPPMHPRP, the “shrunken log2 fold change” value was -0.418. RRIRERPPRLPRPRPRPQGKPRP: the “shrunken log2 fold change” value was -0.345. The value for RRIRFRPPRLPRPRPRPVLGPRP was -0.127; that for RRIRMRPPRLPRPRPRPMSSPRP was 0.0418.

Take RRIRPRPPRLPRPRPRPGCLPRP: the “shrunken log2 fold change” value was 0.339. Regarding RRIRTRPPRLPRPRPRPVRIPRP, the “shrunken log2 fold change” value is -0.0431. The value for RRIRNRPPRLPRPRPRPMTEPRP was 0.00748. With RRIRDRPPRLPRPRPRPPCSPRP, the “shrunken log2 fold change” value is 0.126. For the sequence RRIRYRPPRLPRPRPRPQPRPRP, the “shrunken log2 fold change” value came to 0.463. Regarding RRIRSRPPRLPRPRPRPFQKPRP, the “shrunken log2 fold change” value is -0.00295.

Consider RRIRHRPPRLPRPRPRPHEEPRP, for which the “shrunken log2 fold change” value was -0.206. The result for RRIRRRPPRLPRPRPRPTRGPRP reads 0.661; that for RRIRHRPPRLPRPRPRPGEPPRP, -0.0215. On to RRIRLRPPRLPRPRPRPGVKPRP, for which the “shrunken log2 fold change” value was found to be 0.108. As for RRIRNRPPRLPRPRPRPPNDPRP, the “shrunken log2 fold change” value is 0.182. Turning to RRIRSRPPRLPRPRPRPSFQPRP, the “shrunken log2 fold change” value was -0.282. In the case of RRIRMRPPRLPRPRPRPLVSPRP, the “shrunken log2 fold change” value was 0.162. The value for RRIRWRPPRLPRPRPRPFDAPRP was 0.029; that for RRIRLRPPRLPRPRPRPFDQPRP was 0.0721. Regarding RRIRCRPPRLPRPRPRPCYPPRP, the “shrunken log2 fold change” value was -0.743. RRIRLRPPRLPRPRPRPKETPRP: the “shrunken log2 fold change” value was 0.137. For the sequence RRIRRRPPRLPRPRPRPAGIPRP, the “shrunken log2 fold change” value is 0.352.

The record behind these values is the supplement of paper PMC9112550, “Optimization of the antimicrobial peptide Bac7 by deep mutational scanning” (BMC Biology, 2022).
